Test results: patent publication US20060216231, “Methods for diagnosing and treating tumors and suppressing cd promoters” (published 2006)

Legend:
hnRNP-K (GST fusion) [1] = biological target: T1, hnRNP-K (GST fusion) (Homo sapiens, UniProt P61978 SEQ:1-463); experiment: competition; unrelated competitor oligonucleotide; outcome not explicitly described in text; details: tags: N-terminal GST fusion, expressed in E. coli XL-2 (construct from D. Levens)
Description: (§1) Binding reactions containing GST/hnRNP-K were performed in the absence (GST-K) or presence (+) of a 100 fold molar excess of unlabeled CD43 PyRo SS, the presence of Mut-11 (Mut) representing a mutant version of CD43 PyRo SS which fails to support PyRol binding Farokhzad et al., (2000) Nucleic Acids Research, 28:2256-2267) or the presence of an unrelated oligonucleotide (NS). The free probe and probe bound by the GST/hnRNP-K protein (GST:hnRNP-K) are arrowed.

hnRNP-K (GST fusion) [2] = biological target: T1, hnRNP-K (GST fusion); experiment: EMSA; 70 mM KCl, 5 mM NaCl, 20 mM Tris pH 7.5, poly(dI-dC), 4 C; competed by 100-fold unlabeled self; details: tags: N-terminal GST fusion, expressed in E. coli XL-2 (construct from D. Levens); label: 32P 5'
Description: as §1

hnRNP-K (GST fusion) [3] = biological target: T1, hnRNP-K (GST fusion); experiment: competition; 100-fold excess fails to compete n1 binding; details: tags: N-terminal GST fusion, expressed in E. coli XL-2 (construct from D. Levens)
Description: as §1

B1: NS-SS (ssDNA)
DNA: GAGTTAGCTCACTCATTAGG
hnRNP-K (GST fusion) [1]
  binding result: no binding

B2: CD43 PyRo SS (ssDNA)
DNA: GGGCCCACTTCCTTTCCCCTTG
hnRNP-K (GST fusion) [2]
  binding result: binds

B3: CD43 Mut-11 (ssDNA)
DNA: GGGCCCACTTCCTTCATATATG
hnRNP-K (GST fusion) [3]
  binding result: no binding
